Source: the supplement of paper PMC5998384

Key:
[1] = tested on: HeLa Kyoto; assay: solubility in G1/S (NP-40 vs SDS abundance) (log2 ratio); higher = more soluble; conditions: cell cycle stage: G1/S
[2] = tested on: HeLa Kyoto; assay: solubility change mitosis vs G1/S (difference of NP-40 vs SDS log2 ratios) (log2 ratio difference); higher = more soluble in mitosis
[3] = tested on: HeLa Kyoto; assay: thermal stability score vs G1/S (z-score of summed log2 fold changes over temperatures); higher = more thermally stable than in G1/S
[4] = tested on: HeLa Kyoto; assay: melting temperature (median over replicates), in situ; higher = more thermally stable
[5] = cell cycle stage: early G1 (4.5 h after nocodazole release)
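Wherever melting temperature (median over replicates), in situ is given: HeLa Kyoto cells synchronized by double thymidine or nocodazole block, proteins quantified by TMT10plex mass spectrometry, three independent biological replicates.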
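Wherever solubility change mitosis vs G1/S (difference of NP-40 vs SDS log2 ratios) is given: synchronized HeLa Kyoto cells (double thymidine block for G1/S, nocodazole release for mitosis), protein amounts in NP-40 versus SDS lysates quantified by mass spectrometry, three biological replicates.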
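Wherever solubility in G1/S (NP-40 vs SDS abundance) is given: HeLa Kyoto cells arrested at G1/S by double thymidine block, proteins quantified by TMT10plex mass spectrometry in mild NP-40 versus SDS extracts, three biological replicates.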
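Wherever thermal stability score vs G1/S (z-score of summed log2 fold changes over temperatures) is given: synchronized HeLa Kyoto cells, proteins quantified by TMT10plex mass spectrometry, three biological replicates, mitosis taken 0.5 h after nocodazole release, G1/S directly after double thymidine block.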

Sequence	solubility in G1/S (log2) [1]	solubility change mitosis (log2) [2]	thermal stability score [3, 5]	thermal stability score ([3]; cell cycle stage: mitosis)	melting temperature ([4]; cell cycle stage: G1/S)	melting temperature ([4]; cell cycle stage: mitosis)
MPTTIEREFEELDTQRRWQPLYLEIRNESHDYPHRVAKFPENRNRNRYRDVSPYDHSRVKLQNAENDYINASLVDIEEAQRSYILTQGPLPNTCCHFWLMVWQQKTKAVVMLNRIVEKESVKCAQYWPTDDQEMLFKETGFSVKLLSEDVKSYYTVHLLQLENINSGETRTISHFHYTTWPDFGVPESPASFLNFLFKVRESGSLNPDHGPAVIHCSAGIGRSGTFSLVDTCLVLMEKGDDINIKQVLLNMRKYRMGLIQTPDQLRFSYMAIIEGAKCIKGDSSIQKRWKELSKEDLSPAFDHSPNKIMTEKYNGNRIGLEEEKLTGDRCTGLSSKMQDTMEENSESALRKRIREDRKATTAQKVQQMKQRLNENERKRKRWLYWQPILTKMGFMSVILVGAFVGWTLFFQQNAL [PTPN2]	0.0769	-0.142	0.409	1.35	49 °C	49.2 °C
MNLLPKSSREFGSVDYWEKFFQQRGKKAFEWYGTYLELCGVLHKYIKPREKVLVIGCGNSELSEQLYDVGYRDIVNIDISEVVIKQMKECNATRRPQMSFLKMDMTQMEFPDASFQVVLDKGTLDAVLTDEEEKTLQQVDRMLAEVGRVLQVGGRYLCISLAQAHILKKAVGHFSREGWMVRVHQVANSQDQVLEAEPQFSLPVFAFIMTKFRPVPGSALQIFELCAQEQRKPVRLESAERLAEAVQERQQYAWLCSQLRRKARLGSVSLDLCDGDTGEPRYTLHVVDSPTVKPSRDNHFAIFIIPQGRETEWLFGMDEGRKQLAASAGFRRLITVALHRGQQYESMDHIQAELSARVMELAPAGMPTQQQVPFLSVGGDIGVRTVQHQDCSPLSGDYVIEDVQGDDKRYFRRLIFLSNRNVVQSEARLLKDVSHKAQKKRKKDRKKQRPADAEDLPAAPGQSIDKSYLCCEHHKAMIAGLALLRNPELLLEIPLALLVVGLGGGSLPLFVHDHFPKSCIDAVEIDPSMLEVATQWFGFSQSDRMKVHIADGLDYIASLAGGGEARPCYDVIMFDVDSKDPTLGMSCPPPAFVEQSFLQKVKSILTPEGVFILNLVCRDLGLKDSVLAGLKAVFPLLYVRRIEGEVNEILFCQLHPEQKLATPELLETAQALERTLRKPGRGWDDTYVLSDMLKTVKIV [METTL13]	-0.167	-0.0232	0.527	1.18	49.3 °C	48.9 °C
MAEPSAATQSHSISSSSFGAEPSAPGGGGSPGACPALGTKSCSSSCADSFVSSSSSQPVSLFSTSQEGLSSLCSDEPSSEIMTSSFLSSSEIHNTGLTILHGEKSHVLGSQPILAKEGKDHLDLLDMKKMEKPQGTSNNVSDSSVSLAAGVHCDRPSIPASFPEHPAFLSKKIGQVEEQIDKETKNPNGVSSREAKTALDADDRFTLLTAQKPPTEYSKVEGIYTYSLSPSKVSGDDVIEKDSPESPFEVIIDKAAFDKEFKDSYKESTDDFGSWSVHTDKESSEDISETNDKLFPLRNKEAGRYPMSALLSRQFSHTNAALEEVSRCVNDMHNFTNEILTWDLVPQVKQQTDKSSDCITKTTGLDMSEYNSEIPVVNLKTSTHQKTPVCSIDGSTPITKSTGDWAEASLQQENAITGKPVPDSLNSTKEFSIKGVQGNMQKQDDTLAELPGSPPEKCDSLGSGVATVKVVLPDDHLKDEMDWQSSALGEITEADSSGESDDTVIEDITADTSFENNKIQAEKPVSIPSAVVKTGEREIKEIPSCEREEKTSKNFEELVSDSELHQDQPDILGRSPASEAACSKVPDTNVSLEDVSEVAPEKPITTENPKLPSTVSPNVFNETEFSLNVTTSAYLESLHGKNVKHIDDSSPEDLIAAFTETRDKGIVDSERNAFKAISEKMTDFKTTPPVEVLHENESGGSEIKDIGSKYSEQSKETNGSEPLGVFPTQGTPVASLDLEQEQLTIKALKELGERQVEKSTSAQRDAELPSEEVLKQTFTFAPESWPQRSYDILERNVKNGSDLGISQKPITIRETTRVDAVSSLSKTELVKKHVLARLLTDFSVHDLIFWRDVKKTGFVFGTTLIMLLSLAAFSVISVVSYLILALLSVTISFRIYKSVIQAVQKSEEGHPFKAYLDVDITLSSEAFHNYMNAAMVHINRALKLIIRLFLVEDLVDSLKLAVFMWLMTYVGAVFNGITLLILAELLIFSVPIVYEKYKTQIDHYVGIARDQTKSIVEKIQAKLPGIAKKKAE [RTN3]	0.125	-0.108	0.293	-1.15	55.7 °C	57.6 °C
MGSSKKVTLSVLSREQSEGVGARVRRSIGRPELKNLDPFLLFDEFKGGRPGGFPDHPHRGFETVSYLLEGGSMAHEDFCGHTGKMNPGDLQWMTAGRGILHAEMPCSEEPAHGLQLWVNLRSSEKMVEPQYQELKSEEIPKPSKDGVTVAVISGEALGIKSKVYTRTPTLYLDFKLDPGAKHSQPIPKGWTSFIYTISGDVYIGPDDAQQKIEPHHTAVLGEGDSVQVENKDPKRSHFVLIAGEPLREPVIQHGPFVMNTNEEISQAILDFRNAKNGFERAKTWKSKIGN [PIR]	0.288	-0.0437	-1.49	-1.89	51.8 °C	51.6 °C
MAAAALRSGWCRCPRRCLGSGIQFLSSHNLPHGSTYQMRRPGGELPLSKSYSSGNRKGFLSGLLDNVKQELAKNKEMKESIKKFRDEARRLEESDVLQEARRKYKTIESETVRTSEVLRKKLGELTGTVKESLHEVSKSDLGRKIKEGVEEAAKTAKQSAESVSKGGEKLGRTAAFRALSQGVESVKKEIDDSVLGQTGPYRRPQRLRKRTEFAGDKFKEEKVFEPNEEALGVVLHKDSKWYQQWKDFKENNVVFNRFFEMKMKYDESDNAFIRASRALTDKVTDLLGGLFSKTEMSEVLTEILRVDPAFDKDRFLKQCENDIIPNVLEAMISGELDILKDWCYEATYSQLAHPIQQAKALGLQFHSRILDIDNVDLAMGKMMEQGPVLIITFQAQLVMVVRNPKGEVVEGDPDKVLRMLYVWALCRDQDELNPYAAWRLLDISASSTEQIL [TIMM44]	0.144	-0.0435	0.205	-0.742	52 °C	51.6 °C
MSAEVKVTGQNQEQFLLLAKSAKGAALATLIHQVLEAPGVYVFGELLDMPNVRELAESDFASTFRLLTVFAYGTYADYLAEARNLPPLTEAQKNKLRHLSVVTLAAKVKCIPYAVLLEALALRNVRQLEDLVIEAVYADVLRGSLDQRNQRLEVDYSIGRDIQRQDLSAIARTLQEWCVGCEVVLSGIEEQVSRANQHKEQQLGLKQQIESEVANLKKTIKVTTAAAAAATSQDPEQHLTELREPAPGTNQRQPSKKASKGKGLRGSAKIWSKSN [COPS7A]	0.458	0.216	-1.47	-1.53	53.9 °C	54 °C
MANIAVQRIKREFKEVLKSEETSKNQIKVDLVDENFTELRGEIAGPPDTPYEGGRYQLEIKIPETYPFNPPKVRFITKIWHPNISSVTGAICLDILKDQWAAAMTLRTVLLSLQALLAAAEPDDPQDAVVANQYKQNPEMFKQTARLWAHVYAGAPVSSPEYTKKIENLCAMGFDRNAVIVALSSKSWDVETATELLLSN [UBE2K]	0.332	-0.0147	-2.17	0.646	53.2 °C	53.9 °C
MGDTSEDASIHRLEGTDLDCQVGGLICKSKSAASEQHVFKAPAPRPSLLGLDLLASLKRREREEKDDGEDKKKSKVSSYKDWEESKDDQKDAEEEGGDQAGQNIRKDRHYRSARVETPSHPGGVSEEFWERSRQRERERREHGVYASSKEEKDWKKEKSRDRDYDRKRDRDERDRSRHSSRSERDGGSERSSRRNEPESPRHRPKDAATPSRSTWEEEDSGYGSSRRSQWESPSPTPSYRDSERSHRLSTRDRDRSVRGKYSDDTPLPTPSYKYNEWADDRRHLGSTPRLSRGRGRREEGEEGISFDTEEERQQWEDDQRQADRDWYMMDEGYDEFHNPLAYSSEDYVRRREQHLHKQKQKRISAQRRQINEDNERWETNRMLTSGVVHRLEVDEDFEEDNAAKVHLMVHNLVPPFLDGRIVFTKQPEPVIPVKDATSDLAIIARKGSQTVRKHREQKERKKAQHKHWELAGTKLGDIMGVKKEEEPDKAVTEDGKVDYRTEQKFADHMKRKSEASSEFAKKKSILEQRQYLPIFAVQQELLTIIRDNSIVIVVGETGSGKTTQLTQYLHEDGYTDYGMIGCTQPRRVAAMSVAKRVSEEMGGNLGEEVGYAIRFEDCTSENTLIKYMTDGILLRESLREADLDHYSAIIMDEAHERSLNTDVLFGLLREVVARRSDLKLIVTSATMDAEKFAAFFGNVPIFHIPGRTFPVDILFSKTPQEDYVEAAVKQSLQVHLSGAPGDILIFMPGQEDIEVTSDQIVEHLEELENAPALAVLPIYSQLPSDLQAKIFQKAPDGVRKCIVATNIAETSLTVDGIMFVIDSGYCKLKVFNPRIGMDALQIYPISQANANQRSGRAGRTGPGQCFRLYTQSAYKNELLTTTVPEIQRTNLANVVLLLKSLGVQDLLQFHFMDPPPEDNMLNSMYQLWILGALDNTGGLTSTGRLMVEFPLDPALSKMLIVSCDMGCSSEILLIVSMLSVPAIFYRPKGREEESDQIREKFAVPESDHLTYLNVYLQWKNNNYSTIWCNDHFIHAKAMRKVREVRAQLKDIMVQQRMSLASCGTDWDIVRKCICAAYFHQAAKLKGIGEYVNIRTGMPCHLHPTSSLFGMGYTPDYIVYHELVMTTKEYMQCVTAVDGEWLAELGPMFYSVKQAGKSRQENRRRAKEEASAMEEEMALAEEQLRARRQEQEKRSPLGSVRSTKIYTPGRKEQGEPMTPRRTPARFGL [DHX38]	-0.327	0.0419	0.477	0.888	50.8 °C	52 °C
MSGDGATEQAAEYVPEKVKKAEKKLEENPYDLDAWSILIREAQNQPIDKARKTYERLVAQFPSSGRFWKLYIEAEIKAKNYDKVEKLFQRCLMKVLHIDLWKCYLSYVRETKGKLPSYKEKMAQAYDFALDKIGMEIMSYQIWVDYINFLKGVEAVGSYAENQRITAVRRVYQRGCVNPMINIEQLWRDYNKYEEGINIHLAKKMIEDRSRDYMNARRVAKEYETVMKGLDRNAPSVPPQNTPQEAQQVDMWKKYIQWEKSNPLRTEDQTLITKRVMFAYEQCLLVLGHHPDIWYEAAQYLEQSSKLLAEKGDMNNAKLFSDEAANIYERAISTLLKKNMLLYFAYADYEESRMKYEKVHSIYNRLLAIEDIDPTLVYIQYMKFARRAEGIKSGRMIFKKAREDTRTRHHVYVTAALMEYYCSKDKSVAFKIFELGLKKYGDIPEYVLAYIDYLSHLNEDNNTRVLFERVLTSGSLPPEKSGEIWARFLAFESNIGDLASILKVEKRRFTAFKEEYEGKETALLVDRYKFMDLYPCSASELKALGYKDVSRAKLAAIIPDPVVAPSIVPVLKDEVDRKPEYPKPDTQQMIPFQPRHLAPPGLHPVPGGVFPVPPAAVVLMKLLPPPICFQGPFVQVDELMEIFRRCKIPNTVEEAVRIITGGAPELAVEGNGPVESNAVLTKAVKRPNEDSDEDEEKGAVVPPVHDIYRARQQKRIR [CSTF3]	-0.0695	-0.000668	0.26	-0.413	52 °C	51.9 °C
MSLLLYYALPALGSYAMLSIFFLRRPHLLHTPRAPTFRIRLGAHRGGSGELLENTMEAMENSMAQRSDLLELDCQLTRDRVVVVSHDENLCRQSGLNRDVGSLDFEDLPLYKEKLEVYFSPGHFAHGSDRRMVRLEDLFQRFPRTPMSVEIKGKNEELIREIAGLVRRYDRNEITIWASEKSSVMKKCKAANPEMPLSFTISRGFWVLLSYYLGLLPFIPIPEKFFFCFLPNIINRTYFPFSCSCLNQLLAVVSKWLIMRKSLIRHLEERGVQVVFWCLNEESDFEAAFSVGATGVITDYPTALRHYLDNHGPAARTS [GDPD3]	-0.262	-0.0964	-0.274	0.35	56.4 °C	55.1 °C
MAATFFGEVVKAPCRAGTEDEEEEEEGRRETPEDREVRLQLARKREVRLLRRQTKTSLEVSLLEKYPCSKFIIAIGNNAVAFLSSFVMNSGVWEEVGCAKLWNEWCRTTDTTHLSSTEAFCVFYHLKSNPSVFLCQCSCYVAEDQQYQWLEKVFGSCPRKNMQITILTCRHVTDYKTSESTGSLPSPFLRALKTQNFKDSACCPLLEQPNIVHDLPAAVLSYCQVWKIPAILYLCYTDVMKLDLITVEAFKPILSTRSLKGLVKNIPQSTEILKKLMTTNEIQSNIYT [PSMG1]	0.0966	-0.142	-0.428	-1.27	54.7 °C	54.4 °C
